Assay: soluble on expression in E. coli; label from the status in PepcDB or PDB records

Sequence | soluble on expression in E. coli
MTSSNKLHEVDKDQQSAFDITGRYQTISAHPTKEFSKPTLAAGAVLWRHSSTITENPAVEFAVIHRPHYDDWSLAKGKVDPGESLPVTAEREIREETGHHVHLGKLLGKVSYPVGERTKVVYYWIAQVHDEAFEENNEVDELRWLPYTEARELLSYDVDRLVLDKAYKRLALPTTTRVILVRHAKAHQRHNWAGNDSIRPLEKKGQRQADLLGPMLAAYGPTSIHSATPARCQQTAAPLSELTGLEVVVDDRFDDEAWLSRMTVAQKACEELIATPGTHVVVSQGLFIPDAIAWLSAQGRLPLETIEAKKASAWVLSFHEGELTGADYLVSPLGVK | not soluble
MGSDKIHHHHHHMHTVAVERAARYDPSEVAEAMDRALASLGGMDTFVRPGERVLIKPNMLAAKAPERAVTTHPEVLRAVIRLVRKAGGIPLVGDSPGIGGFRAVAEKSGMAAVVREAGAELVPFDEAVAVPGSGLFRRMDVARPYLEADRLINLPKLKTHEMMTMTCAVKNLFGAVVGTAKAGWHLKAGADRELFARLLLEIYLLRPPDLTIVDGIVAMEGDGPGSGDPRPMGLILAGANAVAVDVVAAELAGIPKQLLWVERAAERLGIDGWDRSRIATVGLPPDDARVPDFRLPHLSDVQFGIPGFLKNRLRHHLTARPVPNPEGCHLCGACLDACPPRAISVRDGRLHFDYHACIRCFCCRELCPDGSLGVRDGVLLKLLKKFKE | not soluble
MIKNRQEILFLYDVTDANPNGDPLDENKPRIDEETGINIVTDVRLKRTIRDYLYDYKGFDGSNGKDIFVREIESEKGGIKDGKARAKDFNENVDEILQKAIDIRLFGGVIPLDKASITFTGPVQFNMGRSLNKVNLKHIKGTGAFASGEGKAQKTFREEYIVPYSIIAFHGIINENAAKRTGLTDEDVDLLDDAMWNGTKNLITRSKMGHMPRLMLRVVYKPGENFFIGDLQNRISLNFDVEEEKIRSIKDFSIKLDELIDELANYGDKIEKVVFVADKNLRLSYKGREINLKDIKDIRFEEKTF | soluble
MTVGGMQPVSIMGKHLNNFERLSILEDYLSGSDSKVAIEQKYGLSHGLIRSWLSKFGLEDKVHPVPMKVSQSPQSELPLNEKEELEQLRKENRVLKSRLKREELGHQAYKLLVELAEETYGIQIRKNSEAK | not soluble
MPPPLPYDAMRSVWTDTAAPAMATAPLAGHADCDVAIVGAGITGLSAALHLAERGLRACVLEARDPGWGASGRNGGQVIPGIKHDPDEILARHGRERGEPLLHMVGTAADTVFDLIDRYGLDLVQAQIRLAAGERLDRVVPADLQPSGHAIELRVYAEDPVRFIPSPGTLAVFELPQGPGVRTETGYHAGNAVSPHYDPMIAKIIVHGADRAQAIARAEQALADTEIAGVKTNLPFLARALAFEPWRQGRLHTGIVARTLAEPAPAALTALEHHHHHH | not soluble
MAHHHHHHMILKEFCAEGYERIPEAIAAGAQRVELCARLDVGGVTPSADTIQNTVEYCHSRNAMVMVIIRCREGNFYYSDEEFQVMLKSVILARRLGADGVVFGAIDTLGNVDPRISILLSAAKGMSLTFHMAFDEIPTEKQFQAIDALTAYGFHRILTHGGSASTNIEENLDWLKELVLYAKNRISIMPGGGVTNLNAEKIARDLGVTEVHGTRVVRFV | not soluble
MRLAFWLYEGTALHGVSRVTNSMKGVHTVYHAPQGDDYITATYTMLERTPEFPKLSISVVRGQDLARGTSRLPGTVEQVDKHYKPELIVVAPSCSTALLQEDLGQMARASGVDQSKIMVYAVNPFRVAENEAAEGLFTELVRRFAAEQPKTEKPSVNLLGFTSLGFHLRSNLTSLRRMLKTLGIEVNVVAPWGAGIDDLKKLPAAWVNIAPFREIGCQAAGYLKEKFGMPSITEAPLGVNATLRWLRAIIAEVNKIGAEKGMAPMAMPELRDFSLDGQSAPSSVPWFARTADMESFSNKRAFVFGDATQVVGVTKFLKDELGMKIIGAGTYLPKQADWVREQLEGYLPGELMVTDKFQEVSAFIEEEMPELVCGTQMERHSCRKLDVPCMVISAPTHIENHLLGYYPFFGFDGADVMADRVYTSAKLGLEKHLIDFFGDAGLEYEAEEPEAFTEPTMSGNGTVASVSSAEAPSEAAVVTATATGELSWTAEAEKMLGKVPFFVRKKVRKNTDNYAREIGEPVVTADVFRKAKEHLGGLEHHHHHH | not soluble
MNRYDRAITIFSPDGHLFQVEYAQEAVKKGSTAVGVRGKDCIVIGVEKKSIPALQDDRTIRKIHMIDDHVMLAFAGLSADARVLVDRARIECQSYKLTLEDPVTVAYISRYIANTKQRFTQSPGRRPFGISMLIGGFDHDGTPRLFKTEPSGAYYEYVANATGRGEKPVREYLEEQYSEENTVDEATTLKLVVKSLAQVVPPGSQNIEIAVMKKVNDELQQRVLSTEEIEALLKVVETERVAAEAEEAASKKK | not soluble
MSLNGSRRIPQPIRWAMVGGGSQSQIGYIHRCAALRDNTFVLVAGAFDIDPIRGSAFGEQLGVDSERCYADYLSMFEQEARRADGIQAVSIATPNGTHYSITKAALEAGLHVVCEKPLCFTVEQAENLRELSHKHNRIVGVTYGYAGHQLIEQAREMIAAGELGDVRMVHMQFAHGFHSAPVEAQSQATQWRVDPRQAGPSYVLGDVGTHPLYLSEVMLPDLKIKRLMCSRQSFVASRAPLEDNAYTLMEYEGGAMGMVWSSAVNAGSMHGQKIRVIGSRASLEWWDERPNQLSFEVQGQPAQILERGMGYLHPNALIDDRIGGGHPEGLFEAWANLYYRFALAMDATDRSDTQALSAVRYPGIDAGVEGVRWVERCVLSADNDSIWVAYEGHHHHHH | soluble
MNRKGYKSGFVSIIGRPNVGKSTFLNRIIGQKIAIMSDKPQTTRNKIQGVYTENDSQVIFIDTPGIHKPKHKLGDFMVKMAQTTLKEVDIVLFMVNAVEGFGRGEEFIIEKLKETKQPVFLVINKIDQVHPEQLLELIDQYRKLHDFAEIVPISALDGNNAEALIGTIKKYLPEGPQYYPDNQVTDHPERFIIAELIREKVLHLTREEVPHSVAVVIDAIQKREGGAVYINATIVVERPSQKGIIIGKQGKMLKEVGKRARFDIEALLGSKVFLEVWVKVQKDWRNKMSQLRDLGFREDEY | not soluble
MKKILLVFLVGTMAFAAYGAEGDVQVSKSVEDSITKDYDQDGVYSSYEKALRRAQESVYVTLPEKRGYWYTMLDRIKAEEEELMPDEQARMRRKR | not soluble
MAAKIEDMETRIEALMDVMRVPPGKKINLKKDYDPGFTGKWMTKAEAKETLARGIQMLAEMQDKLWAQNQYAVLMNLQALDAAGKDGTIKHVMSGVNPQGVDVHSFKGPSSEEMDHDYLWRNFKALPSRGRIGIFNRSYYEEVLVVRVHPEFLASQQLPPKLKDKRIWRRRFEEINNFEKYLVDNGIVVIKFFLYVSKEAQKERFLRRTQLPEKNWKFSAADIKERAHWDDYIAAYEDMFNHTSTEWAPWYIVPADHKWFTRLAVAAVLYYTMEKLNLAYPTVSEEQKQALIAAKEELEREDSGPKDKAVVKAEEEEDADPQDPASNGEVPKDESKKESKKKGSKNR | not soluble
MKIAAIYTQSVGPLPDGEIRFENDWSGEIESNVLITGPNGCGKSTLLRAISLLWRAFGHWLGTGTRLNIKDESYTWFYRWDASCAMILDSFSPKSEDQIGLFLGSEAFLVQLKEKYPQVYWLGETVSRTKGTTPETTVFTSSEHFFLPYKNWWSHWSSQYQRLVLKGPSVDMPNLVYLDAEARRWVRPQKDIGSLSPDDSTQAWLATYEVNDNWKGQLESSLFNMKATMPGEYPEMIATLNQFFSGKRIEAEIHPGQRQRVLLDSGNDHSLDALSSGEHQVLIMLFTVQRWLQPGGVVLIDEPDLHLHPSLISPLLASIENIVARKNGQLVMTSHATDIWQRYDNMGLRIDLTDGKDAENGQR | not soluble
KTFAALGSGVIGSGWIARALAHGLDVVAWDPAPGAEAALRARVANAWPALRKQGLAPGAAQERLRFVASIEECVGDADFIQESAPERLDLKLDLHARISAAARPDVLIGSSTSGLLPSEFYAEASHPERCLVGHPFNPVYLLPLVEVVGGERTAAEAVRAAMRVYESLGMRPLHVRKEVPGFIADRLLEALWREALHLVNDGVATTGEIDDAIRFGAGLRWSFMGTFLTYTLAGGNAGMRHFMAQFGPALQLPWTYLPAPELTEALIDRVVEGTAEQQGARSIAELERYRDDCLLAVLGAIRETKARHGFA | not soluble
MNYIQLQRFNMSKVASIVDVLQGKVAIGETVTVRGWVRTRRDSKAGLSFLAVYDGSCFDPIQAIINNDIENYESEILRLTTGCSVIVTGKVVESPAEGQAVELQAEKVEVTGFVEDPDTYPMAAKRHSIEYLREVAHLRPRTNIIGAVARVRHCLSQAIHRFFHEQGFYWVATPLITASDTEGAGEMFRVSTLDLENLPRSENGKVDFSQDFFGKESFLTVSGQLNGETYACALSKIYTFGPTFRAENSNTTRHLAEFWMVEPEVAFATLADNAKLAEDMLKYVFRAVLAERKDDLQFFEKHVDKDVITRLENFVNSDFAQIDYTDAIDVLLKSGKKFEFPVSWGIDLSSEHERFLAEEYFKSPVVVKNYPKDIKAFYMRLNDDEKTVAAMDVLAPGIGEIIGGSQREERLEVLDKRMEEMGLNPDDYWWYRDLRKYGSVPHSGFGLGFERLIVYVTGVQNIRDVIPFPRAPRNANFLEHHHHHH | soluble
MSASDGDNTEQTGRRRSFGNLFGSTRVPFSSLSDIYANQSTFAKDQGVQSEVDVADAWSQHHAPTRDQYVQSEIITAVETSSQYEVQTKDKEVEAICSTANRTTQTCHATNIAGTNSESCLIEKLANSLLEHLQARRPIKARTAFPIYLQQPEQLQLLPPPDQQSAPVPPSHPLQNSEARQEDLEQTEMPQASQQIGINETSLNDADSQSFFHSRLHQTEQREETNSNSMQSIHSQVNPPASQETMESHFPEMINSRKSDHQLCFSFKKVTSERCSSFPTRHDGSSHFARSSSGLLGSMSSQQQRSQFPVPQEEGNQAEDMRGAQQPHNARNLFGGVGGMFPSMPNSSGGQGPDWQNNHFIRPFGQPAAGMMSWHPGMMPSHMNNSAAPSSFFESPFMPPYDVFMQQQMLLHSQYAAWEQQRNHAMMYQNAQNQNSANVNPSFADIPSAAPISQPEVNVNENQIVPEETERLEADLEIENTVDAIIVTDVGSVNQAVSGVNSIARETEEINNQDVRNETPVEDFGSIISAISITENRNESPMPSASETDDTSPHTSRSRYGSSVAISTGMKRARLEPSQSPPGSSRKNSRNETTKKNSKTPSSTIDKEPTSSKRTRKAPARYEAEWNAEQGGDTRRAKRWSKDFYKAPSKK | not soluble
MGSDKIHHHHHHMINREIAVKVQHVSKTFKLPTEATKSFRTTLVNRLRGIKGFTEQHVLKDINFDVYKGDFFGIVGRNGSGKSTLLKIISQIYVPEKGQVTVDGKMVSFIELGVGFNPELTGRENVYMNGAMLGFTKDEVDDMYNDIVDFAELHHFMNQKLKNYSSGMQVRLAFSVAIKAQGDVLILDEVLAVGDEAFQRKCNDYFMERKDSGKTTILVTHDMGAVKKYCNRAVLIEDGLVKAYGEPFDVANQYSVDNTETAEDAMNAEKISVSDIAKDLKVSLISNPRITPNDTITFEVSYEVLKDDFTYIAFSLTDIDRNIWVYNDNSLDYPTQGIGRKCISYQCQLSQLNDIKLKLEVTVRDKNGQMLLFSTAEQSPQIVIQRNDIDQDDLSALDSASGLYQRNGKWVFH | not soluble
MGSDKIHHHHHHMTTVNETTSQAGLALAQAGSNSAAQGIQDQFLTLLVTQLRNQDPLNPMENAELTSQLAQISTVEGINNLKNTMLAISGQIDVSQSMDAVSMIGKGVLMPGDKVSLGADPNDPAQRGATPFGIDLQGDATKVTVKVLDPSGAVVRTMELGDLKTGVHTLQWDGNNDGGQPLADGKYSITVSASDADANPVKTEALTYGQVKSVAYSTNGLRLDLGLAGQISMLDVRKVIGASGSA | not soluble
